Assay results from patent publication US20030018175A1.

Target: human alpha-1-antitrypsin (Sigma) (human) (UniProt P01009)
Test: cell-based or functional assay

Chain of UniProt P01009 (P01009 25-418 limits assumed): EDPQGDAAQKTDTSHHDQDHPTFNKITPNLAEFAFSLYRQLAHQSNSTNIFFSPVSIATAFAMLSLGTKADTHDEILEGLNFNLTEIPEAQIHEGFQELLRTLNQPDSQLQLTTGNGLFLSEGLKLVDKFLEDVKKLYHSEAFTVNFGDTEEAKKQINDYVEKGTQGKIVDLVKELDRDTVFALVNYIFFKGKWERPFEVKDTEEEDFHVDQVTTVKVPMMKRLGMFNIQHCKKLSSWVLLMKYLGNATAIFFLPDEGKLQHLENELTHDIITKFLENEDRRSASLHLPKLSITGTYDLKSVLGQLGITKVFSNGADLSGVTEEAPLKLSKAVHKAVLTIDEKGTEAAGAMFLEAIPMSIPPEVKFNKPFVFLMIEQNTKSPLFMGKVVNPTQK

For APC conjugate D189N+K191T (enzyme), the % residual amidolytic activity, 16.6 µM inhibitor, 20 h at 37 °C was 90% and the % residual amidolytic activity, 42.3 µM inhibitor, 20 h at 37 °C was 77%.

Molecule APC conjugate D214N (enzyme) has a % residual amidolytic activity, 16.6 µM inhibitor, 20 h at 37 °C of 80% and a % residual amidolytic activity, 42.3 µM inhibitor, 20 h at 37 °C of 81%.

APC conjugate E307N+E309T (enzyme) was tested, and the % residual amidolytic activity, 16.6 µM inhibitor, 20 h at 37 °C was 10% and the % residual amidolytic activity, 42.3 µM inhibitor, 20 h at 37 °C was less than 1%.

For APC conjugate K191N+K193T (enzyme), the % residual amidolytic activity, 16.6 µM inhibitor, 20 h at 37 °C was 59% and the % residual amidolytic activity, 42.3 µM inhibitor, 20 h at 37 °C was 24%.

With APC conjugate K217N+L219T (enzyme) the % residual amidolytic activity, 16.6 µM inhibitor, 20 h at 37 °C was 20% and the % residual amidolytic activity, 42.3 µM inhibitor, 20 h at 37 °C was 4%.

Molecule APC conjugate L386N+H388T (enzyme) has a % residual amidolytic activity, 16.6 µM inhibitor, 20 h at 37 °C of 68% and a % residual amidolytic activity, 42.3 µM inhibitor, 20 h at 37 °C of 44%.

APC conjugate M338N (enzyme) was tested, and the % residual amidolytic activity, 16.6 µM inhibitor, 20 h at 37 °C was 38% and the % residual amidolytic activity, 42.3 µM inhibitor, 20 h at 37 °C was 12%.

APC conjugate S305N+E307T (enzyme) showed a % residual amidolytic activity, 16.6 µM inhibitor, 20 h at 37 °C of 42% and a % residual amidolytic activity, 42.3 µM inhibitor, 20 h at 37 °C of 9%.

APC conjugate S336N+M338T (enzyme) gave a % residual amidolytic activity, 16.6 µM inhibitor, 20 h at 37 °C of 72% and a % residual amidolytic activity, 42.3 µM inhibitor, 20 h at 37 °C of 40%.

APC conjugate T253N+D255T (enzyme) gave a % residual amidolytic activity, 16.6 µM inhibitor, 20 h at 37 °C of 56% and a % residual amidolytic activity, 42.3 µM inhibitor, 20 h at 37 °C of 38%.

“APC variant D189N+K191N (control) (enzyme)” gave a % residual amidolytic activity, 16.6 µM inhibitor, 20 h at 37 °C of 12% and a % residual amidolytic activity, 42.3 µM inhibitor, 20 h at 37 °C of less than 1%.

Work on APC variant D214A (control) (enzyme) yielded a % residual amidolytic activity, 16.6 µM inhibitor, 20 h at 37 °C of 21% and a % residual amidolytic activity, 42.3 µM inhibitor, 20 h at 37 °C of 1%.

With APC variant K251N (enzyme) the % residual amidolytic activity, 16.6 µM inhibitor, 20 h at 37 °C was 62% and the % residual amidolytic activity, 42.3 µM inhibitor, 20 h at 37 °C was 53%.

Work on APC variant M338A (control) (enzyme) yielded a % residual amidolytic activity, 16.6 µM inhibitor, 20 h at 37 °C of 9% and a % residual amidolytic activity, 42.3 µM inhibitor, 20 h at 37 °C of 2%.

Work on APC variant S190N+K192T (enzyme) yielded a % residual amidolytic activity, 16.6 µM inhibitor, 20 h at 37 °C of 28% and a % residual amidolytic activity, 42.3 µM inhibitor, 20 h at 37 °C of 5%.

Work on APC variant S252N (enzyme) yielded a % residual amidolytic activity, 16.6 µM inhibitor, 20 h at 37 °C of 62% and a % residual amidolytic activity, 42.3 µM inhibitor, 20 h at 37 °C of 34%.

Work on APC variant Y302N (enzyme) yielded a % residual amidolytic activity, 16.6 µM inhibitor, 20 h at 37 °C of 50% and a % residual amidolytic activity, 42.3 µM inhibitor, 20 h at 37 °C of 30%.

wild-type COS 7 APC (enzyme) gave a % residual amidolytic activity, 16.6 µM inhibitor, 20 h at 37 °C of 7% and a % residual amidolytic activity, 42.3 µM inhibitor, 20 h at 37 °C of less than 1%.

B1: wild-type plasma APC (enzyme)
chain: ANSFLEELRHSSLERECIEEICDFEEAKEIFQNVDDTLAFWSKHVDGDQCLVLPLEHPCASLCCGHGTCIDGIGSFSCDCRSGWEGRFCQREVSFLNCSLDNGGCTHYCLEEVGWRRCSCAPGYKLGDDLLQCHPAVKFPCGRPWKRMEKKRSHLLIDGKMTRRGDSPWQVVLLDSKKKLACGAVLIHPSWVLTAAHCMDESKKLLVRLGEYDLRRWEKWELDLDIKEVFVHPNYSKSTTDNDIALLHLAQPATLSQTIVPICLPDSGLAERELNQAGQETLVTGWGYHSSREKEAKRNRTFVLNFIKIPVVPHNECSEVMSNMVSENMLCAGILGDRQDACEGDSGGPMVASFHGTWFLVGLVSWGEGCGLLHNYGVYTKVSRYLDWIHGHIRDKEAPQKSWAP
modifications: two chains: light 1-155, heavy 170-419
Work on B1 yielded a % residual amidolytic activity, 16.6 µM inhibitor, 20 h at 37 °C of 10% and a % residual amidolytic activity, 42.3 µM inhibitor, 20 h at 37 °C of 2%.
